Consider 13 sequences from a protein production outcome set (Wang et al. 2014).

The nature of the data set: label from the status in PepcDB records.
Turning to “MSQPNFLLFITDQHRADHLGAYGNSQIRTPALDALARRGWLAERFYVASPICMPNRATLMTGRMPSAHGARHNGIPLSQRATTFVERLRQAGYGTALVGKSHLQNMTGNGPVWPRPQDPPAEGEAWAPEPGDYDQEWGPLWREDPAHDLATPFYGFSQVDLAVDHGDRVWGHYWRWLQREHPEVAAQAGPDHALPAPGFELVRAGQAWRTRVPESCSTTAYLGRRTMQALDGYAQRGQPFFIQCSFPDPHHPFTPPGKYWDMYRPEDVELPASFHASAAAGRQPPPHVQWMYAQRDSGRAVKHTPAMFACTEREAREAIALNYGSISHIDHTVGEVLAHLQRLGLADNTVVIFTSDHGDYLGDHQLLWKGPVHYQSVIRTPFIWADPAGAQGARSDALCSTTDIAPTILARAGLLPYNGIQGADLGALMRGEQAAPREAVLIEEEGQRVMFGFDKRVRMRTLQTGRYRMSVYHGVSWGELYDLREDPLELRNLWDEPGSAALRQDLLFQLAQNLIGHGETSPHPTALA”, the protein production result is listed as “failed”.

As to “MSQPSALPAADSLAALHPGFKSSALVWLGVMVALWGFSWPVMKICVGLAPPLWLAAIRFTSSGLCLFAFLACRGELRLPPRADWPIVASVGGLQMMAFTGLGLVAMQYTDAGRAALLAYTTPLWAVVTAWIAFGQRPTAAQGVALCVGLSGVAVICSPADMDWGDSTVLLGNALLLLSAMCWSFVILHVRRHRFTARPIDLAPWQMLLAALPLIVIAASVDGSPLTIAWTPELIGFLIYFGPIATSACFVISSEYGRRVSAFAMSNITLGVPVIGMLSSIFLLGERVTVPLIIGLTLIVSGVALAALAVNRKAAAGRADTALRSQAGKANWPTA”, the protein production result is “failed”.

On to “MSQPVAFVTGCSSGIGRALADAFQRAGYRVWASARKEDDVRALAEAGFQAVQLDVNDAAALARLAEELGVEAAGLDVLVNNAGYGAMGPLLDGGVEAMRRQFETNVFAVVGVTRALFPLLRRKSGLVVNVGSVSGVLVTPFAGAYCASKAAVHALSDALRLELAPFGVEVLEVQPGAIASNFGASASREMDSVVDERSPWWPLRRQIQARAAASQDNPTSAEDFARQLLAAVQRRPRPPLVRIGNGSRALPALARWLPRGLLERLLKKRFGLDTRL”, for which the protein production result is recorded as “failed”.

In the case of “MSQQKSDFADDADIDESLDELASEETIEETVENLEANGFEVIVVNSADDALAELQSLIPAEASVMNGHSTTLEEIGFDEYLSDGDHGWESLPEEIWSIDDDAKRQAARRESQTADYFLGGINGISQTGELVAADRSGSRIGAYPFAASNVVIVSGVNKIVPTLEDALDRLETVAYPLENERAKEAYGVDSAIAKQLILRQELEEGRTTVVLIREHLGYLEHHHHHH”, the protein production result was “not failed”.

Regarding “MSQQPESDRTEGDLRNTGMELKHERTWDYELDRIVDAVEERDAMKVGLQFPEGLKRRAGRVADDLRRLLPDETTVLLSGQPCYGACDLDTYMMRRTDVFVHFGHSPMKESDKIIYVPLFSNVEVTPIMEEARAELAAPEEDDAVGLVTTAQHMNRFDEMQAWLEERGYTVETRRGDERLTHEGQVLGCNYASADVDADQILYVGGGKFHPLGLAMEHPDKKVIIADPVNNAVHVADTEQFMKQRYAAVHKAMDAEEWGVIFCTKIGQGRWDTAEEIVEANDNAYLITMDEVTPDRLTNFGFDAYVNTGCPRITTDDGPQFKQPMLTPGEYKIAIGEKPMDSLSFDTFHGTW”, the protein production result is “failed”.

With “MSQRTSEENRYEQLHRFAAKIHSTMQIDDVLEEIICTLQNVYPAFTYHLLLSHDNHVCGNLPIKTLALDESEGQPAALRAFLTGQVQCEETAAPPRSVLYAPIKGVQAVYGVIQIIAPYAAPFPKREINFISLLAGTAGRALENAKLYEQSRRLEHHHHHH”, the protein production entry is “not failed”.

For “MSQSSKARLSTDPTVFEAVLNNHTPMMQQYLRIKAQHPDMLMFYRMGDFYELFFDDAEKAAKLLDITLTRRGTSAGEPIKMAGVPYHAAEQYLAKLVKLGESVVICEQVGDPATSKGPVERQVTRIITPGTLTDAALLEDKRDSALLALLVHESTLGLAWLNLAAGQFSVMETSVNNLTAELERLKPAEILLPESLNLAGINDRVIQEKLCVKHLPAWQFDTAAAVRNLSRQFGTHDLSGFGCEDLDVSLGAASALLDYTRLTQGASIGHIKGLRVEREDTYLRMDATTRRNLEISETIRGDAAPTLLSLLDTCSTNMGSRLLCHWLHHPLRDRGLIQNRLNGVSFLMGEAGSGPCLSVRDCLKRVTDIERITARIALKSARPRDLSGLRDSLKRLPAVNNAVAGTATTSSGGSDVSAHVAALIHSMAPDNALVALLEKSLKEEPEVMLRTGGVIADGYDAELDELRAIHNNCDEFLLQLETREKARTGIANLKVEYNRLHGFYIEVTHAHTEKIPDDYRRRQTLKNAERYITPELKAFEEKALSAQSRALEREKLLYGELLDMLSQYIDHLQQVARSVAELDVLATFAERALALDYSLPLFTSDSVIEIQAGRHPVVEKQVDSFIANDVQLGARTGGRRQMLVITGPNMGGKSTYMRQVALIALLAHCGSFVPARSALIGPLDQLFTRIGASDDLAGGRSTFMMEMTEAANILHNATAQSLVLMDEVGRGTSTFDGLALAFAIARYLLEKNRSYTLFATHYFELTRLAEEFAQVANVHLRAVEHKHHIVFLHAVNEGPASQSYGLQVAALAGVPDPVIRTARRYLLKLEQEALSNQPQGDLFSRDDLFWKQDRMPEGSVDKNDSAPEHPVLALLRTIVPDDLSPKQALEQLYGLKKAAEKE”, the protein production result is “failed”.

“MSQTPSLAQLQPADAFLRRHLGPDPAEQQAMLAFLGVSTRAELIVQTVPPAIRLNRPLELPAALDEQAALARLRGYAGLNQRWTSLIGMGYYGTVTPSVILRNVLENPGWYTAYTPYQPEIAQGRLEALLNFQQLTIDLTGLDLASASLLDEATAAAEAMALARRVAKARSNRFFVDAHCHPQTVSVLRTRAEAFGFELVVDEPDNLAAHAVFGALLQYPDSRGEIRDLRPLIEALHGQQALACVASDLLALLLLTPPGELGADVVLGSAQRFGVPMGYGGPHAAFFATREGYKRAMPGRIIGVSRDARGNPALRMALQTREQHIRREKANSNICTAQVLLANIASLYAVYHGPQELKRIAQRVQRLTALLAAGLKSKGLRRLNRHFFDTLTYEVGERQAAILERARAARVNLRVVDDRRLALSLDETCDAATLATLFEIFLGAGHGLDVAHLDGGAVADGIPAVLQRTSAYLQHPVFNAHHSETEMLRYLRQLEGKDLALNQAMIPLGSCTMKLNASSEMIPITWPEFAELHPFVPREQAEGYRRMIDELEAWLRAITGFDAICMQPNSGAQGEYAGLLAIRRYHQSRGDSQRDICLIPASAHGTNPASAIMASMRVVIVECDPRGNVDLDDLRLKAAEAGDRLSCLMITYPSTHGVYEEGIGEICEVVHRHGGQVYMDGANLNAQVGLARPADIGADVSHMNLHKTFCIPHGGGGPGMGPIGVKRHLAPFVANHPVIRVEGPNPLNDAVSATPWGSASILPISWMYIAMMGPQLADASEVAILSANYLANRLDGAFPVLYRGRNERVAHECILDLRPLKAQTGITEEDVAKRLMDYGFHAPTMSFPVPGTLMVEPTESESKAELDRFVEAMLSIRAEIGKVESGAWPAEDNPLKRAPHTLADVTGIWQRPYEIAEAVTPSEHARAFKYWPAVNRVDNVYGDRNLFCACVPLDDYR”: the protein production result is listed as “failed”.

With “MSQTSLEPLIISIIKLQILQLWLKLIAVGWNLGSNDDELYTELWKACAGPLVEVPRYGERVFYFPQGHMEQLVASTNQGVVDQEIPVFNLPPKILCRVLSVTLKAEHETDEVYAQITLQPEEDQSEPTSLDPPLVEPAKPTVDSFVKILTASDTSTHGGFSVLRKHATECLPSLDMTQPTPTQELVARDLHGYEWRFKHIFRGQPRRHLLTTGWSTFVTSKRLVAGDAFVFLRGETGDLRVGVRRLAKQQSTMPASVISSQSMRLGVLATASHAVTTTTIFVVFYKPRISQFIISVNKYMMAMKNGFSLGMRYRMRFEGEESPERIFTGTIIGSGDLSSQWPASKWRSLQIQWDEPSSIQRPNKVSPWEIEPFSPSALTPTPTQQQSKSKRSRPISEITGSPVASSFLSSFSQSHESNPSVKLLFQDPATERNSNKSVFSSGLQCKITEAPVTSSCRLFGFDLTSKPASATIPHDKQLISVDSNISDSTTKCQDPNSSNSPKEQKQQTSTRSRIKVQMQGTAVGRAVDLTLLRSYDELIKELEKMFEIEGELSPKDKWAIVFTDDEGDRMLVGDDPWNEFCKMAKKLFIYPSDEVKKMRSKSLLGDKGTIVNLESDQRTVHV”, the protein production entry is recorded as “failed”.

As for “MSRAYTGALSYPQKIVIILLNKISSQHLKGDIFGGLTAAVIALPLALAFGVSSGAGAIAGVYGAIFVGFFAALFGGTATQISGPTGPMSVVMALVFTQLIGSHPDTGLVLAFTCVILAGLFQILFGLLKLGKYFVMVPYPVISGFMTGIGIIIILLQISPLLGSAGDSNALAALMNIPNALSQQNTLATVLGVITLLLMIYWPEKWTKIIPAPLFALITLTVISATFFSQQGISVIGEIPTGFPSLSMPSLSLESLSQVSYFAFLLAVLGAIDSLLTSMVADTLTETHHDSDKELIGQGIANTIAGFFGALPGAGATMRTAINIRAGGKTALSGIIHSITLLIVILWAGDYAQYIPHTVLAGMLIKVGLDIIDWRFIFQIKKVGLFSATLMLLVLLLTVFVDLITAVLVGMFIANLVTLDRLTHIQLDNITFKRGDELLSEISSNETNIALTDDIQNNLSKSLANTLLLEIDGPVSFAVSRELSRRFTENLAFTTLVIDLSNAKLIGTTTAIMITDLIDRTKSKEKTVLVITGNEKINQSLDKLSLATLLDKKYQFTNREQALQTLI”, the protein production result is “failed”.

In the case of “MSRCASRFRISSKLSATFRTTHKSHQARNPAGFFVIMGYHKDATKRMIMVYTKVYPMRFGYIALGTPPIQSLDIRKMPKLTDMQIRAWIKSGERFEGRADGNGLYLRYREADKTPTWRFRYKLAGKSRAMLIGSYSELSLSKARETAKELSARVALGYDVAGEKQKRKTEALAKMEAEKNAMRVSELAAEYFERQILPRWKHPDILRRRIDKDINPCIGSMKVEDVKPRHIDDMLKGIVDRGAPTIATDVLRWTRRIFDYGIKRHALEINPCSAFEVADAGGKEAARDRWLTRDELIQLFKAMRTAKGFSRQNEITFKLLLALCVRKMELCAARWEEFDLDGAVWHLPEERSKNGDPIDIPLPSPAVEWLRELHTFSCNSAWVLPARKMQNRMIPHIQESTLPVALAKVRAEMPDVPNFTIHDFRRTARTHLAALGVDPVVAERCLNHRIKGVEGIYNRHQYFDERKAALAQWADLLVALESGKDYNVTPLRRAN”, the protein production result was “failed”.

For “MSRHPARTGEKTFFGHPFQLSTLFHIELWERFSFYGMQGILLIYLYYTADKGGLGIDKTLAGGIVGAYSGSVYLSTILGAWFADRVWGAEKTLFLSGIVVMLGHIVLAAAPGLYGLLIGLIFIALGSGGVKSTASSMVGALYEQDEMRPLRDAGFSIFYIAINIGGFLGPLLTGLLQENIGFHYGFGAAAVGMAFGLWRYSLGRKNLPHPTVPHPLSKGQGKTAAAVGITLIAALATAIKTGLVNLDNFSGILLSTVILAVIAYFARLLTNPRVSSDNKRHIIAYIPLFLTICMFWAVWFQIYTVATVYFDETVNRTIGSFTVPVAWKDSMQSLWVILFSGLMAAMWTKMGRKQPKTPLKFAMAVFVTGASFLGFVPFISSGTPMPIAVFALIVLAITIGELMISPIALSISTKIAPPLFKTQMVALNFLAFSLGFTLGGVLFEKGYQAGDEIGFYRLLFYIGAATGFLLLLLVPKLNKMLEGTD”, the protein production entry is recorded as “failed”.

Turning to “MSRKILDRYIAKTVLSAIGLVTLMLVGLQIFILFVNQIDDLGRADYGIVQAGVFVLLQMPYQVYLFFPIASLLGCLVGLGVLANHSELVVMRAAGISIGQITGAVLKASLIVILLITSLGETIVPVMAHYANEYKVSALTGGQALLTPRGVWVRNGNDFVSIASVTHENTLRYVNQFRFDNQHNLKLARQISEVKYVNNSWIAYDVKQTEFAEDHTKAHHFDTLPWDVPVKPEILKITGTNPDEMTLHELNRYLREQQRNHQNVANYKFAFFQRITQPLNTMVMMILAIPFIFGPLRSSTMGSKLLVGAMVGFGFHILNRFFGPVSTVFQWPPELAAFSPTLIFSLIGIYLMRRVR”, the protein production entry is given as “failed”.
